Target: wild-type GroEL chaperonin (GroEL14) (E. coli) (UniProt P0A6F5)
Experiment: SDS-PAGE band intensity + absorption spectrophotometry; purified GroEL14-EGFP population assembled in vivo by coexpression; Coomassie-stained bands of WT GroEL (~60 kDa) and GroEL-EGFP (~90 kDa); absorption at 280 and 489 nm
Settings: scale: WT subunits per fusion GroEL-EGFP subunit

Sequence of wild-type GroEL chaperonin (GroEL14) (E. coli) (P0A6F5 whole entry): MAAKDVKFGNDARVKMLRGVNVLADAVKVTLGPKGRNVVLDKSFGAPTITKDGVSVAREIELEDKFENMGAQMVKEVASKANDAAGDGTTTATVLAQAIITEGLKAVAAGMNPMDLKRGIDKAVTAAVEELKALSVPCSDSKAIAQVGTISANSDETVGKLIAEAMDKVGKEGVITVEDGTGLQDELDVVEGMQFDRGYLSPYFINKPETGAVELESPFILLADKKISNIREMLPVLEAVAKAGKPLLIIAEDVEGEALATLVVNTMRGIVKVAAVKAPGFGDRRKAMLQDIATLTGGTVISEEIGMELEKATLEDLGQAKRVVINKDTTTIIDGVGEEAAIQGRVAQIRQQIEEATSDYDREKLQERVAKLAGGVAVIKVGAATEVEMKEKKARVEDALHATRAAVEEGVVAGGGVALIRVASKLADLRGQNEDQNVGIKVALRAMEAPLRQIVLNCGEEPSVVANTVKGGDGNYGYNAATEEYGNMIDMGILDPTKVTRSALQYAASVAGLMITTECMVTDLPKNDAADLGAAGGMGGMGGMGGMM

Q: With “GroEL-EGFP fusion subunit (from UniProt P0A6F5 1-548; P42212 2-238)” as the substance, how does the stoichiometry N read?
A: 12
